Test results published in the supplement of paper PMC10567573.

B1: TPD52L2 (parent)
chain: EAEEEELRAELTKVEEEIVTLRQV

Variants of: B1
Assay: protein stability index of a GFP-peptide fusion (GPS, HEK-293T) (PSI 1-6); higher = more stable
Details: c terminus: a fixed tail appended
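Note: lentivirally expressed fusions sorted by FACS into six bins by GFP to DsRed ratio, PSI derived from sequencing read proportions per bin multiplied by bin number.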

Protein stability index of substitutions, site by site:
E17: Q 3.86 | P 4.66 | I 3.46 | S 4.29 | L 4.24 | Y 2.35 | K 4.67 | W 2.28 | V 4.05 | C 4.63 | R 4.62 | M 4.02 | F 2.87 | D 5.55 | G 5.32 | H 3.44 | N 4.54 | T 4.63 | A 4.14
L11: E 4.83 | A 5.8 | V 5.2 | F 5.09 | S 5.65 | Y 5.51 | R 5.22 | Q 5.67 | G 5.38 | W 5 | K 5.55 | C 5.5 | P 5.64 | M 3.99 | D 5.92 | H 5.43 | N 5.25 | T 5.33 | I 4.98
E10: P 5.46 | M 3.3 | C 4.84 | K 4.91 | L 2.96 | N 4.91 | T 3.21 | R 4.11 | H 4.38 | A 3.05 | S 3.49 | D 4.36 | V 2.72 | G 5.34 | I 2 | F 3.64 | Q 3.98 | Y 4.05
T12: F 3.83 | L 3.08 | S 3.75 | A 3.35 | Q 3.87 | C 3.63 | V 4.06 | E 4.22 | Y 3.39 | M 2.65 | P 5.06 | H 3.51 | N 3.9 | K 3.75 | D 4.91 | I 3.51 | R 3.12 | W 2.1 | G 4.8
I18: T 5.19 | P 5.69 | N 4.93 | F 4.52 | C 4.55 | E 5.86 | W 5.09 | Q 5.41 | V 5.35 | A 5.93 | K 5.19 | L 3.92 | Y 5.12 | M 5.11 | S 5.45 | H 5.24 | R 5.71 | D 5.66 | G 5.67
R8: M 3.79 | K 4.59 | L 3.6 | T 5.17 | N 4.51 | G 4.55 | W 2.59 | V 3.97 | F 3.66 | Y 3.41 | S 4.79 | I 3.83 | P 5.43 | D 4.91 | H 3.91 | E 4.84 | C 4.16 | A 4.23 | Q 3.96
T20: V 3.92 | R 3.3 | S 3.56 | H 3.56 | Y 2.77 | D 5.3 | N 3.34 | K 3.44 | C 3.46 | Q 4.04 | G 3.86 | F 2.85 | A 3.9 | P 4.98 | I 3.06 | W 2.99 | M 2.92 | E 3.84 | L 2.91
K13: R 3.27 | T 5.15 | N 5.26 | M 4.18 | S 4.54 | H 5.04 | Q 4.55 | A 3.96 | E 5.82 | G 5.18 | D 5.76 | C 5.11 | L 4.06 | I 3.5 | V 4.33 | F 4.25 | P 5.55 | Y 4.08 | W 4.21
L7: S 5.58 | K 5.49 | M 5.21 | W 4.92 | R 5.49 | H 5.2 | N 5.41 | Y 5.29 | P 5.55 | V 5.77 | D 5.5 | A 5.44 | C 4.93 | I 5.39 | E 5.74 | G 5.14 | F 5.23 | Q 5.62 | T 5.39
E16: N 3.93 | K 3.25 | L 3.06 | S 3.46 | T 4.33 | P 4.79 | Q 3.52 | M 2.59 | I 2.61 | R 2.79 | C 3.82 | A 3.85 | W 2.66 | G 4.84 | F 2.76 | H 3.87 | Y 1.82 | V 3.27 | D 4.17
A9: K 3.68 | Y 3.44 | V 3.74 | M 2.95 | E 4.34 | T 3.67 | Q 4 | R 3.64 | L 2.62 | W 2.51 | S 4.32 | P 5.11 | F 2.4 | G 4.9 | H 2.82 | N 3.79 | C 3.98 | D 3.93 | I 2.37
E5: W 2.42 | S 2.35 | V 1.62 | T 2.71 | Y 3.06
E6: G 2.73 | I 3.62 | L 2.8 | R 3.23 | T 3.58 | M 2.08 | Y 3.08 | K 3 | V 3.81 | C 2.51 | P 4.32 | D 2.98 | H 2.91 | S 3.12 | Q 3.46 | N 3.15 | W 2.62 | A 3.06 | F 2.68
Q23: H 3.6 | G 4.54 | F 3.19 | A 3.56 | D 4.43 | E 3.82 | C 3.9
R22: A 4.54 | S 4.37 | T 4.18 | W 2.92 | I 2.44 | N 3.9 | E 4.25 | D 3.54 | Q 3.77 | G 3.79 | P 4.85 | V 3.4 | C 3.66 | M 3.17 | F 2.33 | Y 2.54 | L 3.06 | K 3.8 | H 3.96
L21: M 4.72 | H 4.08 | S 5.68 | A 4.96 | F 4.09 | N 5.73 | C 4.72 | Q 5.13 | E 5.4 | P 5.57 | V 5.22 | Y 3.34 | R 5.56 | G 5.24 | I 4.25 | D 5.73 | W 3.63 | T 5.65 | K 5.86
V14: S 4.42 | P 5.75 | A 4.05 | Y 5.05 | H 5.7 | F 5.01 | I 3.57 | G 3.76 | R 5.35 | M 4.43 | L 3.82 | Q 5.59 | D 4.74 | E 5.67 | N 5.33 | T 4.37 | C 3.54 | K 5.72 | W 4.05
V19: D 4.82 | N 4.51 | G 4.79 | Q 3.04 | R 3.88 | F 3.27 | K 3.89 | M 3.52 | P 5.45 | E 4.21 | I 2.96 | C 3.78 | T 4.44 | W 2.54 | H 3.9 | L 3.69 | A 3.96 | Y 3.71 | S 3.98
E15: L 1.83 | D 5.55 | C 3.94 | A 4.41 | R 4.72 | Y 3.24 | T 4.63 | M 2.91 | S 4.39 | W 3.03 | N 5.27 | H 5.12 | F 3.61 | Q 4.9 | G 5.31 | I 1.81 | P 5.04 | K 5.01 | V 2.8
